Laboratory results from patent US20260167721A1 (ABLEXIS, published 2026).

Key:
[1] = target: T1, human CD3 (TCR/CD3 complex on the cell surface) (human, UniProt P07766 23-207; P04234 22-171; P09693 23-182); experiment: flow cytometry, Jurkat WT cells, 1 ug/mL
T1 construct: whole, on cells; Native CD3 on human Pan-T cells or Jurkat wild-type cells; also called CD3 on Pan-T cells; CD3 on Jurkat WT cells

[2] = target: T1, human CD3 (TCR/CD3 complex on the cell …); experiment: flow cytometry, Pan-T cells, 10 ug/mL
[3] = target: T1, human CD3 (TCR/CD3 complex on the cell …); experiment: flow cytometry, Jurkat WT gMFI over Jurkat KO gMFI, 10 ug/mL
[4] = target: T1, human CD3 (TCR/CD3 complex on the cell …); experiment: flow cytometry, Jurkat WT cells, 10 ug/mL
[5] = target: T1, human CD3 (TCR/CD3 complex on the cell …); experiment: flow cytometry, Jurkat WT gMFI over Jurkat KO gMFI, 1 ug/mL
[6] = target: T1, human CD3 (TCR/CD3 complex on the cell …); experiment: flow cytometry, Pan-T cells, 1 ug/mL

T1 sequence (P07766 23-207, chain 1 of 3): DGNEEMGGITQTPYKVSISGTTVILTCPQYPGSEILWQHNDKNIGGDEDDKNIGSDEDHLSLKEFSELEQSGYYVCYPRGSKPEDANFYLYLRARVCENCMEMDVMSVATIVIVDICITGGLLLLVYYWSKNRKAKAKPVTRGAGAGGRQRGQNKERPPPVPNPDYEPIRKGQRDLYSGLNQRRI
T1 sequence (P04234 22-171, chain 2 of 3): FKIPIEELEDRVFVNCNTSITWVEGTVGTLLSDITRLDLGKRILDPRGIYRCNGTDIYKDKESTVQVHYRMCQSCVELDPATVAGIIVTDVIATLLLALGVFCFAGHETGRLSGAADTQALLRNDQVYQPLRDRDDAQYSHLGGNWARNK
T1 sequence (P09693 23-182, chain 3 of 3): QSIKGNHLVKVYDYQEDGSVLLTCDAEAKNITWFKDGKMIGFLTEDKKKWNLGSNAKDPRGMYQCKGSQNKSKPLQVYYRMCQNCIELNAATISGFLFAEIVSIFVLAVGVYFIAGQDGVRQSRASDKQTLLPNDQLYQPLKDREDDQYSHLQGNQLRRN

Row | gMFI [1] | % Positive [2] | gMFI [2] | Jurkat WT/KO (Fold) [3] | gMFI [4] | Jurkat WT/KO (Fold) [5] | % Positive [6] | gMFI [6] | Binder
1 | 33900 gMFI | 99.8% | 232000 gMFI | 12.5 fold | 39500 gMFI | 10.5 fold | 99.7% | 112000 gMFI | CD3 × CD33-BspAb95 (bispecific antibody) chain 1: NFMLTQPHSVSESPGKTVTISCTRSSGSIASNYVQWYQQRPGSSPTTVIYEDNQRSSGVPDRFSGSIDSSSNSASLTISGLKTEDEADYYCQSYDRSNRVFGCGTKLTVLGGGGSGGGGSGGGGSGGGGSEVQLVESGGGLVKPGGSLRLSCSASGFTFSTYTMNWVRQAPGKCLEWVSSISKSSSYIYYTDSVKGRFTISRDNAKNSLYLQMNSLRAEDTAVYYCARERRTLAFDIWGQGTMVTVSSDKTHTCPPCPAPEFEGGPSVFLFPPKPKDTLMISRTPEVTCVVVDVSHEDPEVKFNWYVDGVEVHNAKTKPREEQYNSTYRVVSVLTVLHQDWLNGKEYKCKVSNKALPASIEKTISKAKGQPREPQVYTLPPCREEMTKNQVSLWCLVKGFYPSDIAVEWESNGQPENNYKTTPPVLDSDGSFFLYSKLTVDKSRWQQGNVFSCSVMHEALHNHYTQKSLSLSPGK chain 2: EVQLVQSGAEVKKPGSSVKVSCKASGYTITDSNIHWVRQAPGQSLEWIGYIYPYNGGTDYNQKFKNRATLTVDNPTNTAYMELSSLRSEDTAFYYCVNGNPWLAYWGQGTLVTVSSASTKGPSVFPLAPSSKSTSGGTAALGCLVKDYFPEPVTVSWNSGALTSGVHTFPAVLQSSGLYSLSSVVTVPSSSLGTQTYICNVNHKPSNTKVDKRVEPKSCDKTHTCPPCPAPEFEGGPSVFLFPPKPKDTLMISRTPEVTCVVVDVSHEDPEVKFNWYVDGVEVHNAKTKPREEQYNSTYRVVSVLTVLHQDWLNGKEYKCKVSNKALPASIEKTISKAKGQPREPQVCTLPPSREEMTKNQVSLSCAVKGFYPSDIAVEWESNGQPENNYKTTPPVLDSDGSFFLVSKLTVDKSRWQQGNVFSCSVMHEALHNRFTQKSLSLSPGK chain 3: DIQLTQSPSTLSASVGDRVTITCRASESLDNYGIRFLTWFQQKPGKAPKLLMYAASNQGSGVPSRFSGSGSGTEFTLTISSLQPDDFATYYCQQTKEVPWSFGQGTKVEVKRTVAAPSVFIFPPSDEQLKSGTASVVCLLNNFYPREAKVQWKVDNALQSGNSQESVTEQDSKDSTYSLSSTLTLSKADYEKHKVYACEVTHQGLSSPVTKSFNRGEC
2 | 2370 gMFI | 95.8% | 17900 gMFI | 3.5 fold | 7470 gMFI | 1.1 fold | 8.2% | 3700 gMFI | CD3 × CD33-BspAb96 (bispecific antibody) chain 1: SYELTQPPSVSVSPGQTARITCSGDALPKKYAYWYQQKSGQAPVLVIYEDSKRPSGIPERFSGSSSGTMATLTISGAQVEDEADYYCYSTDSSGNHSWVFGCGTKLTVLGGGGSGGGGSGGGGSGGGGSEVQLVESGGGLVKPGGSLRLSCAASGFTFSSYSMNWVRQAPGKCLEWVSSVNSRGSYIYYADSVKGRFTISRDNAKDSLYLQMNSLRADDTAVYYCARDRRELLLDYWGQGTLVTVSSDKTHTCPPCPAPEFEGGPSVFLFPPKPKDTLMISRTPEVTCVVVDVSHEDPEVKFNWYVDGVEVHNAKTKPREEQYNSTYRVVSVLTVLHQDWLNGKEYKCKVSNKALPASIEKTISKAKGQPREPQVYTLPPCREEMTKNQVSLWCLVKGFYPSDIAVEWESNGQPENNYKTTPPVLDSDGSFFLYSKLTVDKSRWQQGNVFSCSVMHEALHNHYTQKSLSLSPGK chain 2: EVQLVQSGAEVKKPGSSVKVSCKASGYTITDSNIHWVRQAPGQSLEWIGYIYPYNGGTDYNQKFKNRATLTVDNPTNTAYMELSSLRSEDTAFYYCVNGNPWLAYWGQGTLVTVSSASTKGPSVFPLAPSSKSTSGGTAALGCLVKDYFPEPVTVSWNSGALTSGVHTFPAVLQSSGLYSLSSVVTVPSSSLGTQTYICNVNHKPSNTKVDKRVEPKSCDKTHTCPPCPAPEFEGGPSVFLFPPKPKDTLMISRTPEVTCVVVDVSHEDPEVKFNWYVDGVEVHNAKTKPREEQYNSTYRVVSVLTVLHQDWLNGKEYKCKVSNKALPASIEKTISKAKGQPREPQVCTLPPSREEMTKNQVSLSCAVKGFYPSDIAVEWESNGQPENNYKTTPPVLDSDGSFFLVSKLTVDKSRWQQGNVFSCSVMHEALHNRFTQKSLSLSPGK chain 3: DIQLTQSPSTLSASVGDRVTITCRASESLDNYGIRFLTWFQQKPGKAPKLLMYAASNQGSGVPSRFSGSGSGTEFTLTISSLQPDDFATYYCQQTKEVPWSFGQGTKVEVKRTVAAPSVFIFPPSDEQLKSGTASVVCLLNNFYPREAKVQWKVDNALQSGNSQESVTEQDSKDSTYSLSSTLTLSKADYEKHKVYACEVTHQGLSSPVTKSFNRGEC
3 | 3890 gMFI | 98.5% | 53000 gMFI | 3.7 fold | 8450 gMFI | 1.7 fold | 66.3% | 9270 gMFI | CD3 × CD33-BspAb97 (bispecific antibody) chain 1: SYELTQPPSVSVSPGQTARITCSGDALPKKYAYWYQQKSGQAPVLVIYEDSKRPSGIPERFSGSSSGTMATLTISGAQVEDEADYYCYSTDSSGNHWVFGCGTKLTVLGGGGSGGGGSGGGGSGGGGSEVQLVESGGGLVKPGGSLRLSCAASGFTFSNYYMNWVRQAPGKCLERVSSISSSSNYIYYADSVKGRFTISRDNAKNSLYLQMNSLRAEDTAVYYCARDRRELPLDYWGQGTVVTVSSDKTHTCPPCPAPEFEGGPSVFLFPPKPKDTLMISRTPEVTCVVVDVSHEDPEVKFNWYVDGVEVHNAKTKPREEQYNSTYRVVSVLTVLHQDWLNGKEYKCKVSNKALPASIEKTISKAKGQPREPQVYTLPPCREEMTKNQVSLWCLVKGFYPSDIAVEWESNGQPENNYKTTPPVLDSDGSFFLYSKLTVDKSRWQQGNVFSCSVMHEALHNHYTQKSLSLSPGK chain 2: EVQLVQSGAEVKKPGSSVKVSCKASGYTITDSNIHWVRQAPGQSLEWIGYIYPYNGGTDYNQKFKNRATLTVDNPTNTAYMELSSLRSEDTAFYYCVNGNPWLAYWGQGTLVTVSSASTKGPSVFPLAPSSKSTSGGTAALGCLVKDYFPEPVTVSWNSGALTSGVHTFPAVLQSSGLYSLSSVVTVPSSSLGTQTYICNVNHKPSNTKVDKRVEPKSCDKTHTCPPCPAPEFEGGPSVFLFPPKPKDTLMISRTPEVTCVVVDVSHEDPEVKFNWYVDGVEVHNAKTKPREEQYNSTYRVVSVLTVLHQDWLNGKEYKCKVSNKALPASIEKTISKAKGQPREPQVCTLPPSREEMTKNQVSLSCAVKGFYPSDIAVEWESNGQPENNYKTTPPVLDSDGSFFLVSKLTVDKSRWQQGNVFSCSVMHEALHNRFTQKSLSLSPGK chain 3: DIQLTQSPSTLSASVGDRVTITCRASESLDNYGIRFLTWFQQKPGKAPKLLMYAASNQGSGVPSRFSGSGSGTEFTLTISSLQPDDFATYYCQQTKEVPWSFGQGTKVEVKRTVAAPSVFIFPPSDEQLKSGTASVVCLLNNFYPREAKVQWKVDNALQSGNSQESVTEQDSKDSTYSLSSTLTLSKADYEKHKVYACEVTHQGLSSPVTKSFNRGEC
